Drawing on PMC8146883, “A New Thermophilic Ene-Reductase from the Filamentous Anoxygenic Phototrophic Bacterium Chloroflexus aggregans” (Microorganisms, 2021), this text covers Km, kcat and kcat/Km for 1 protein.

Experiment in all cases: purified protein
Holding throughout (type): biochemical, Chloroflexus aggregans
Holding throughout (conditions): 100 μM NADPH, 50 mM Tris-HCl pH 8.0, 25 °C, 1% ethanol, 200 nM enzyme

Substrate in data set [1]: CC1=CC(=O)CC(C)(C)C1=O
Substrate in data set [2]: C=CC(=O)CCCCC
Substrate in data set [3]: O=C1C=CCCC1

What is called Km is the concentration of substrate that gives half-maximal velocity. The term kcat denotes the number of substrate molecules converted per active site and unit of time at saturation. What is called kcat/Km is the turnover number divided by the Michaelis constant.

B1: CaOYE (Chloroflexus aggregans DSM 9485) (protein)
chain: MQPHLFTPLTIGSVTLRNRIGMSPMCQYSAVDGFPTDWHLMHLGARAAGGVGLIILEATAVSPEGRISPFDLGIWSDDHIAALSRIVKLIESLGAVAGIQLAHAGRKASVGRPWEGGKPIAPANGGWPVVGPTAEPFAPGYPTPIPLDAAGIARVVADFATATKRARAAGFRWIEIHAAHGYLLHNFLSPLGNDRNDEYGGDLRGRVRLLSEVTAAVRAEWPSDLPLAVRLSCSDWTPEGLTIADTVEVARMLREQGVDLIDCSSGGIAPGITIPVGEGYQVPFAAQVRREANIATAAVGLITRPEHADAIVRNGDADLVLLGRELLRDPHWPLRAARALGHDLAPPPQYLRAW
notes: full-length ORF in pET-28a(+) (NdeI/BamHI), N-terminal His6-tag, E. coli BL21(DE3); model visible Met1 to Trp354; monomer in solution, dimer in crystal
As for B1, in data set [1], the Km amounted to 0.013 ± 0.002 mM, the kcat was determined as 2.27 ± 0.055 s⁻¹ and the kcat/Km was determined as 175000 M⁻¹ s⁻¹. For the same protein, in data set [2], the Km amounted to 10.32 ± 1.438 mM, the kcat stood at 12.1 ± 0.661 s⁻¹ and the kcat/Km worked out at 1170 M⁻¹ s⁻¹. Besides, in data set [3], the Km worked out at 5.520 ± 0.627 mM, the kcat stood at 3.82 ± 0.176 s⁻¹ and the kcat/Km was determined as 690 M⁻¹ s⁻¹.
